According to patent publication US20220306695A1, “COMPSTATIN ANALOGUES AND THEIR MEDICAL USES” (priority 2019, published 2022):
Positions of bridges follow the written chain, without caps; N, C: chain ends.

Target: Human C3 (human, UniProt P01024 23-1663)
Assay: cell-based or functional assay

Chain of Human C3 (P01024 23-1663 limits assumed): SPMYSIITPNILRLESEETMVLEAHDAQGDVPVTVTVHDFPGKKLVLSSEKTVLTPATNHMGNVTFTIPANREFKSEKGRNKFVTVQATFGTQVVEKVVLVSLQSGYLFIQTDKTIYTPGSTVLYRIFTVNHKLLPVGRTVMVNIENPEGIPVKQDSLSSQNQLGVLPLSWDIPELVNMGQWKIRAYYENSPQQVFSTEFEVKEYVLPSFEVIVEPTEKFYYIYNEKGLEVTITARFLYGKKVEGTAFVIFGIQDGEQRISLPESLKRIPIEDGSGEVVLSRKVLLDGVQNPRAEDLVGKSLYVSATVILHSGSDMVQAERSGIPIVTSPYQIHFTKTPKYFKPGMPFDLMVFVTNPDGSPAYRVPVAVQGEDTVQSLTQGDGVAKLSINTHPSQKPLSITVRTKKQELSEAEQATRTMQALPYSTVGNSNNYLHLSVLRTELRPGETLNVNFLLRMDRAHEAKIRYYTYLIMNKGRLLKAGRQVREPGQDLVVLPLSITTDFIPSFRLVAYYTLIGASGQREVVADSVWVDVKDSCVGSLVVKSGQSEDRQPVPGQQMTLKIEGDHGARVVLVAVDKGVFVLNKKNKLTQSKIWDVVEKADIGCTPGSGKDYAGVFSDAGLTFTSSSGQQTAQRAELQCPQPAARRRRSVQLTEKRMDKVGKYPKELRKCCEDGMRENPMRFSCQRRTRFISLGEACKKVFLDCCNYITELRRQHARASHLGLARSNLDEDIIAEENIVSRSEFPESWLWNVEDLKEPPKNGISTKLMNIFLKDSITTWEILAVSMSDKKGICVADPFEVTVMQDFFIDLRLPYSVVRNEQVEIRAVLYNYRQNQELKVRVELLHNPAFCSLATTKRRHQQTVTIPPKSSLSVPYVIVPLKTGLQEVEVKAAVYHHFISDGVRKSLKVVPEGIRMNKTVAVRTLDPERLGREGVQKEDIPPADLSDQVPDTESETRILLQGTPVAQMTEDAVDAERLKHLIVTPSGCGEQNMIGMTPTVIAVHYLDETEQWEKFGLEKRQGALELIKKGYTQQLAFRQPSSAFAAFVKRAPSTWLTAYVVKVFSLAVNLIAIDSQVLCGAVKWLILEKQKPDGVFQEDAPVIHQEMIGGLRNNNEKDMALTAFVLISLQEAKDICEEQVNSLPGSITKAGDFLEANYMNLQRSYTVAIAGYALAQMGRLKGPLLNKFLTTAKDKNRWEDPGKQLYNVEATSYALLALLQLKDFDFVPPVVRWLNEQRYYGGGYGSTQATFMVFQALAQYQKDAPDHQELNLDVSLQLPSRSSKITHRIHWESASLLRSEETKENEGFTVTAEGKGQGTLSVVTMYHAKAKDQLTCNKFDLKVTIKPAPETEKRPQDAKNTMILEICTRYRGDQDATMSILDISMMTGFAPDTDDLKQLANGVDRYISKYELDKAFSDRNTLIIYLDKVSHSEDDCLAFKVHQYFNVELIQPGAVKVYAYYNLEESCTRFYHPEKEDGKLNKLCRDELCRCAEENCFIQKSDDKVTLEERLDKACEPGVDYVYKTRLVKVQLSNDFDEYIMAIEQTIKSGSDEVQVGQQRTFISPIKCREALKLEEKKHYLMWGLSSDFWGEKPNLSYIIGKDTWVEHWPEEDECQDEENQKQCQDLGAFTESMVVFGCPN

Row | Binder | IC50[nM], inhibition of hemolysis
1 | Ac-ESEICIWQDWGEHRCEGE-NH2 (disulfide 5-15; SMILES CC[C@H](C)[C@@H]1NC(=O)[C@@H](NC(=O)[C@@H](NC(=O)[C@H](CCC(=O)O)NC(=O)[C@H](CO)NC(=O)[C@H](CCC(=O)O)NC(C)=O)[C@@H](C)CC)CSSC[C@@H](C(=O)N[C@@H](CCC(=O)O)C(=O)NCC(=O)N[C@@H](CCC(=O)O)C(N)=O)NC(=O)[C@H](CCCNC(=N)N)NC(=O)[C@H](Cc2c[nH]cn2)NC(=O)[C@H](CCC(=O)O)NC(=O)CNC(=O)[C@H](Cc2c[nH]c3ccccc23)NC(=O)[C@H](CC(=O)O)NC(=O)[C@H](CCC(N)=O)NC(=O)[C@H](Cc2c[nH]c3ccccc23)NC1=O) [Compound 36] | < 250 nM
2 | Ac-ESEICIWQDWGEHRCT-NH2 (disulfide 5-15; SMILES CC[C@H](C)[C@@H]1NC(=O)[C@@H](NC(=O)[C@@H](NC(=O)[C@H](CCC(=O)O)NC(=O)[C@H](CO)NC(=O)[C@H](CCC(=O)O)NC(C)=O)[C@@H](C)CC)CSSC[C@@H](C(=O)N[C@H](C(N)=O)[C@@H](C)O)NC(=O)[C@H](CCCNC(=N)N)NC(=O)[C@H](Cc2c[nH]cn2)NC(=O)[C@H](CCC(=O)O)NC(=O)CNC(=O)[C@H](Cc2c[nH]c3ccccc23)NC(=O)[C@H](CC(=O)O)NC(=O)[C@H](CCC(N)=O)NC(=O)[C@H](Cc2c[nH]c3ccccc23)NC1=O) [Compound 31] | < 100 nM
3 | Ac-EICIWQDWGEHRCTEGE-NH2 (disulfide 3-13; SMILES CC[C@H](C)[C@@H]1NC(=O)[C@@H](NC(=O)[C@@H](NC(=O)[C@H](CCC(=O)O)NC(C)=O)[C@@H](C)CC)CSSC[C@@H](C(=O)N[C@H](C(=O)N[C@@H](CCC(=O)O)C(=O)NCC(=O)N[C@@H](CCC(=O)O)C(N)=O)[C@@H](C)O)NC(=O)[C@H](CCCNC(=N)N)NC(=O)[C@H](Cc2c[nH]cn2)NC(=O)[C@H](CCC(=O)O)NC(=O)CNC(=O)[C@H](Cc2c[nH]c3ccccc23)NC(=O)[C@H](CC(=O)O)NC(=O)[C@H](CCC(N)=O)NC(=O)[C@H](Cc2c[nH]c3ccccc23)NC1=O) [Compound 34] | < 250 nM
4 | Ac-ICIWQDWGEHRCEGE-NH2 (disulfide 2-12; SMILES CC[C@H](C)[C@H](NC(C)=O)C(=O)N[C@H]1CSSC[C@@H](C(=O)N[C@@H](CCC(=O)O)C(=O)NCC(=O)N[C@@H](CCC(=O)O)C(N)=O)NC(=O)[C@H](CCCNC(=N)N)NC(=O)[C@H](Cc2c[nH]cn2)NC(=O)[C@H](CCC(=O)O)NC(=O)CNC(=O)[C@H](Cc2c[nH]c3ccccc23)NC(=O)[C@H](CC(=O)O)NC(=O)[C@H](CCC(N)=O)NC(=O)[C@H](Cc2c[nH]c3ccccc23)NC(=O)[C@H]([C@@H](C)CC)NC1=O) [Compound 27] | < 100 nM
5 | Ac-KEKICIWQDWGEHRCTEKE-NH2 (disulfide 5-15; SMILES CC[C@H](C)[C@@H]1NC(=O)[C@@H](NC(=O)[C@@H](NC(=O)[C@H](CCCCN)NC(=O)[C@H](CCC(=O)O)NC(=O)[C@H](CCCCN)NC(C)=O)[C@@H](C)CC)CSSC[C@@H](C(=O)N[C@H](C(=O)N[C@@H](CCC(=O)O)C(=O)N[C@@H](CCCCN)C(=O)N[C@@H](CCC(=O)O)C(N)=O)[C@@H](C)O)NC(=O)[C@H](CCCNC(=N)N)NC(=O)[C@H](Cc2c[nH]cn2)NC(=O)[C@H](CCC(=O)O)NC(=O)CNC(=O)[C@H](Cc2c[nH]c3ccccc23)NC(=O)[C@H](CC(=O)O)NC(=O)[C@H](CCC(N)=O)NC(=O)[C@H](Cc2c[nH]c3ccccc23)NC1=O) [Compound 37] | < 250 nM
6 | Ac-EGEICIWQDWGEHRCT-NH2 (disulfide 5-15; SMILES CC[C@H](C)[C@@H]1NC(=O)[C@@H](NC(=O)[C@@H](NC(=O)[C@H](CCC(=O)O)NC(=O)CNC(=O)[C@H](CCC(=O)O)NC(C)=O)[C@@H](C)CC)CSSC[C@@H](C(=O)N[C@H](C(N)=O)[C@@H](C)O)NC(=O)[C@H](CCCNC(=N)N)NC(=O)[C@H](Cc2c[nH]cn2)NC(=O)[C@H](CCC(=O)O)NC(=O)CNC(=O)[C@H](Cc2c[nH]c3ccccc23)NC(=O)[C@H](CC(=O)O)NC(=O)[C@H](CCC(N)=O)NC(=O)[C@H](Cc2c[nH]c3ccccc23)NC1=O) [Compound 30] | < 100 nM
7 | Ac-ICIWQDWGEHRCTEA-NH2 (disulfide 2-12; SMILES CC[C@H](C)[C@H](NC(C)=O)C(=O)N[C@H]1CSSC[C@@H](C(=O)N[C@H](C(=O)N[C@@H](CCC(=O)O)C(=O)N[C@@H](C)C(N)=O)[C@@H](C)O)NC(=O)[C@H](CCCNC(=N)N)NC(=O)[C@H](Cc2c[nH]cn2)NC(=O)[C@H](CCC(=O)O)NC(=O)CNC(=O)[C@H](Cc2c[nH]c3ccccc23)NC(=O)[C@H](CC(=O)O)NC(=O)[C@H](CCC(N)=O)NC(=O)[C@H](Cc2c[nH]c3ccccc23)NC(=O)[C@H]([C@@H](C)CC)NC1=O) [Compound 25] | < 100 nM
8 | Ac-SAICIWQDWGEHRCTEG-NH2 (disulfide 4-14; SMILES CC[C@H](C)[C@H](NC(=O)[C@H](C)NC(=O)[C@H](CO)NC(C)=O)C(=O)N[C@H]1CSSC[C@@H](C(=O)N[C@H](C(=O)N[C@@H](CCC(=O)O)C(=O)NCC(N)=O)[C@@H](C)O)NC(=O)[C@H](CCCNC(=N)N)NC(=O)[C@H](Cc2c[nH]cn2)NC(=O)[C@H](CCC(=O)O)NC(=O)CNC(=O)[C@H](Cc2c[nH]c3ccccc23)NC(=O)[C@H](CC(=O)O)NC(=O)[C@H](CCC(N)=O)NC(=O)[C@H](Cc2c[nH]c3ccccc23)NC(=O)[C@H]([C@@H](C)CC)NC1=O) [Compound 42] | < 250 nM
9 | Ac-SEICIWQDWGEHRCTEA-NH2 (disulfide 4-14; SMILES CC[C@H](C)[C@@H]1NC(=O)[C@@H](NC(=O)[C@@H](NC(=O)[C@H](CCC(=O)O)NC(=O)[C@H](CO)NC(C)=O)[C@@H](C)CC)CSSC[C@@H](C(=O)N[C@H](C(=O)N[C@@H](CCC(=O)O)C(=O)N[C@@H](C)C(N)=O)[C@@H](C)O)NC(=O)[C@H](CCCNC(=N)N)NC(=O)[C@H](Cc2c[nH]cn2)NC(=O)[C@H](CCC(=O)O)NC(=O)CNC(=O)[C@H](Cc2c[nH]c3ccccc23)NC(=O)[C@H](CC(=O)O)NC(=O)[C@H](CCC(N)=O)NC(=O)[C@H](Cc2c[nH]c3ccccc23)NC1=O) [Compound 32] | < 100 nM
10 | Ac-ICIWQDWGEHRCTE-NH2 (disulfide 2-12; SMILES CC[C@H](C)[C@H](NC(C)=O)C(=O)N[C@H]1CSSC[C@@H](C(=O)N[C@H](C(=O)N[C@@H](CCC(=O)O)C(N)=O)[C@@H](C)O)NC(=O)[C@H](CCCNC(=N)N)NC(=O)[C@H](Cc2c[nH]cn2)NC(=O)[C@H](CCC(=O)O)NC(=O)CNC(=O)[C@H](Cc2c[nH]c3ccccc23)NC(=O)[C@H](CC(=O)O)NC(=O)[C@H](CCC(N)=O)NC(=O)[C@H](Cc2c[nH]c3ccccc23)NC(=O)[C@H]([C@@H](C)CC)NC1=O) [Compound 26] | < 100 nM
11 | Ac-EGEICIWQDWGEHRCEGE-NH2 (disulfide 5-15; SMILES CC[C@H](C)[C@@H]1NC(=O)[C@@H](NC(=O)[C@@H](NC(=O)[C@H](CCC(=O)O)NC(=O)CNC(=O)[C@H](CCC(=O)O)NC(C)=O)[C@@H](C)CC)CSSC[C@@H](C(=O)N[C@@H](CCC(=O)O)C(=O)NCC(=O)N[C@@H](CCC(=O)O)C(N)=O)NC(=O)[C@H](CCCNC(=N)N)NC(=O)[C@H](Cc2c[nH]cn2)NC(=O)[C@H](CCC(=O)O)NC(=O)CNC(=O)[C@H](Cc2c[nH]c3ccccc23)NC(=O)[C@H](CC(=O)O)NC(=O)[C@H](CCC(N)=O)NC(=O)[C@H](Cc2c[nH]c3ccccc23)NC1=O) [Compound 35] | < 500 nM
12 | Ac-ICIWQDWGEHRCTEGK-NH2 (disulfide 2-12; SMILES CC[C@H](C)[C@H](NC(C)=O)C(=O)N[C@H]1CSSC[C@@H](C(=O)N[C@H](C(=O)N[C@@H](CCC(=O)O)C(=O)NCC(=O)N[C@@H](CCCCN)C(N)=O)[C@@H](C)O)NC(=O)[C@H](CCCNC(=N)N)NC(=O)[C@H](Cc2c[nH]cn2)NC(=O)[C@H](CCC(=O)O)NC(=O)CNC(=O)[C@H](Cc2c[nH]c3ccccc23)NC(=O)[C@H](CC(=O)O)NC(=O)[C@H](CCC(N)=O)NC(=O)[C@H](Cc2c[nH]c3ccccc23)NC(=O)[C@H]([C@@H](C)CC)NC1=O) [Compound 39] | < 100 nM
13 | Ac-EICIWQDWGEHRCTE-NH2 (disulfide 3-13; SMILES CC[C@H](C)[C@@H]1NC(=O)[C@@H](NC(=O)[C@@H](NC(=O)[C@H](CCC(=O)O)NC(C)=O)[C@@H](C)CC)CSSC[C@@H](C(=O)N[C@H](C(=O)N[C@@H](CCC(=O)O)C(N)=O)[C@@H](C)O)NC(=O)[C@H](CCCNC(=N)N)NC(=O)[C@H](Cc2c[nH]cn2)NC(=O)[C@H](CCC(=O)O)NC(=O)CNC(=O)[C@H](Cc2c[nH]c3ccccc23)NC(=O)[C@H](CC(=O)O)NC(=O)[C@H](CCC(N)=O)NC(=O)[C@H](Cc2c[nH]c3ccccc23)NC1=O) [Compound 33] | < 100 nM
14 | Ac-EKGICIWQDWGEHRCTEKP-NH2 (disulfide 5-15; SMILES CC[C@H](C)[C@H](NC(=O)CNC(=O)[C@H](CCCCN)NC(=O)[C@H](CCC(=O)O)NC(C)=O)C(=O)N[C@H]1CSSC[C@@H](C(=O)N[C@H](C(=O)N[C@@H](CCC(=O)O)C(=O)N[C@@H](CCCCN)C(=O)N2CCC[C@H]2C(N)=O)[C@@H](C)O)NC(=O)[C@H](CCCNC(=N)N)NC(=O)[C@H](Cc2c[nH]cn2)NC(=O)[C@H](CCC(=O)O)NC(=O)CNC(=O)[C@H](Cc2c[nH]c3ccccc23)NC(=O)[C@H](CC(=O)O)NC(=O)[C@H](CCC(N)=O)NC(=O)[C@H](Cc2c[nH]c3ccccc23)NC(=O)[C@H]([C@@H](C)CC)NC1=O) [Compound 38] | < 250 nM
